From patent publication US20120309692
“And” between values parts separate entries of the source, which are not always exact repeats. Identical values can stand only once.

Tests used:
[1] = tested on: GGKAR-dR-L (SEQ ID NO: 122)
[2] = tested on: Z-Ala-Arg-Arg-AMC (SEQ ID NO: 62)
[3] = tested on: H-Arg-Gln-Arg-Arg-AMC (SEQ ID NO: 63)
Semenogelin I = Semenogelin I (UniProt P04279)
[4] = tested on: Tos-Gly-Pro-Lys-AMC (SEQ ID NO: 59)
[5] = tested on: GGKA-dR-dR-L (SEQ ID NO: 123)
[6] = tested on: Z-Leu-Leu-Arg-AMC (SEQ ID NO: 60)
[7] = tested on: H-Pro-Phe-Arg-AMC (SEQ ID NO: 55)
[8] = tested on: GHEQARRL (SEQ ID NO: 108)
[9] = tested on: Boc-Gln-Gly-Arg-AMC (SEQ ID NO: 54)
[10] = molecular target: protein C inhibitor (PCI) (UniProt P05154)
Chain of protein C inhibitor (PCI) (P05154 20-406): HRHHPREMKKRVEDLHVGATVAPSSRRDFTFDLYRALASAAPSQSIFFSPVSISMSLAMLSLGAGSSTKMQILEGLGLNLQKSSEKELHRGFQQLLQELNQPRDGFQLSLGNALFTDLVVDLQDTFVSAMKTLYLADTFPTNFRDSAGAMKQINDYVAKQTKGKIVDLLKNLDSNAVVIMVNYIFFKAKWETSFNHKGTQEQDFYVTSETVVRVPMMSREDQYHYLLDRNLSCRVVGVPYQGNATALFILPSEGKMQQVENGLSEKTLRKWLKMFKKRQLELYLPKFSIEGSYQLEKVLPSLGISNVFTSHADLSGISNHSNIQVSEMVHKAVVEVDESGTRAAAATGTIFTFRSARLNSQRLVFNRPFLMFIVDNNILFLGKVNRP

[11] = tested on: Z-Val-Val-Arg-AMC (SEQ ID NO: 61)
[12] = tested on: Tos-Gly-Pro-Arg-AMC (SEQ ID NO: 58)
[13] = tested on: GGKA-dR-RL (SEQ ID NO: 119)
Semenogelin II = Semenogelin II (UniProt Q02383)
Chain of Semenogelin II (Q02383 24-582): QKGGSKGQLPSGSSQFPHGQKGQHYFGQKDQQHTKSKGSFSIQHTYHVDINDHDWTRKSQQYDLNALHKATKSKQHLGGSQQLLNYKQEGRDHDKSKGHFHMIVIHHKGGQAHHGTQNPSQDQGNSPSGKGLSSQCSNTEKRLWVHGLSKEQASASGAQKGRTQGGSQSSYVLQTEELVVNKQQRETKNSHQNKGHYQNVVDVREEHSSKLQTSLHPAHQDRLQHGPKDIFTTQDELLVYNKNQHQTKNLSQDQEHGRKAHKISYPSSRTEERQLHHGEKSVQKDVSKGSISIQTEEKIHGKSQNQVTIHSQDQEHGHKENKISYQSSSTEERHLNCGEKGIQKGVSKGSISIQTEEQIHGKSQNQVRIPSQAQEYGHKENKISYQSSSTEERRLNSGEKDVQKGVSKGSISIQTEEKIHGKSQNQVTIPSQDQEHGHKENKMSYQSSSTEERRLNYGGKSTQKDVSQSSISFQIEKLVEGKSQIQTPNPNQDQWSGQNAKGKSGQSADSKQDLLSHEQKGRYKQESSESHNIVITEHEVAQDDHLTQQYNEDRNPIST

[14] = tested on: boc-Val-Pro-Arg-AMC (SEQ ID NO: 56)
[15] = tested on: H-D-Val-Leu-Lys-AMC (SEQ ID NO: 57)
[16] = tested on: GAEQKRRL (SEQ ID NO: 103)
[17] = tested on: GHEQKRR-dL (SEQ ID NO: 110)
[18] = tested on: Boc-Phe-Ser-Arg-AMC (SEQ ID NO: 53)
[19] = tested on: GHEQKRRE (SEQ ID NO: 113)

Chain of Semenogelin I (P04279 24-462): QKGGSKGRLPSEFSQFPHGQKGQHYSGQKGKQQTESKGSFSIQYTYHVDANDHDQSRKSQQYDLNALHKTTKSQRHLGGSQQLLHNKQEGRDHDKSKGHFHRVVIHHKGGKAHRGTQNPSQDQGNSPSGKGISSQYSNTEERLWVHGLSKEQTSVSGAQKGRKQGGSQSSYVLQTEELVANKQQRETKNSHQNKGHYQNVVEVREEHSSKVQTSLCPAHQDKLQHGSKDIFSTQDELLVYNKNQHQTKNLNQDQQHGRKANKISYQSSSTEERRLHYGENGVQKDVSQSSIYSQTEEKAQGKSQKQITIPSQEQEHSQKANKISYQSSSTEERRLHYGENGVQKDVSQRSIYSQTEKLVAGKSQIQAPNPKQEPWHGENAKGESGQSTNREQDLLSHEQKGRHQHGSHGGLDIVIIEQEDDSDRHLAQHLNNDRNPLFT

recombinant human glandular kallikrein 2 (hK2)
hK2 Hydrolysis Rate (GSYPSSRL (SEQ ID NO: 75)): 1460 FU/hr/m | hK2 Hydrolysis Rate (GPAHQRRL (SEQ ID NO: 69)): 4020 FU/hr/m | hK2 Hydrolysis Rate (GSNTEKRL (SEQ ID NO: 80)): 256 FU/hr/m | hK2 Hydrolysis Rate [1]: 49.6 FU/hr/m | hK2 Hydrolysis Rate (GHEQKRRA (SEQ ID NO: 97)): 3050 FU/hr/m | hK2 Hydrolysis Rate (GGKAHRL (SEQ ID NO: 114)): 1290 FU/hr/m | hK2 Hydrolysis Rate (GGKAFRL (SEQ ID NO: 102)): 2370 FU/hr/m | Activity (%) with 100 µM substrate, relative to H-Pro-Phe-Arg-AMC [2]: 33% | Kcat [2]: 0.12 s⁻¹ | Kcat/km [2]: 6000 M⁻¹ s⁻¹ | Km [2]: 20 µM | substrate hydrolysis by hK2 [3]: NR | cleavage by hK2 (HPLC of fragments) (Semenogelin I): Cleavage of either Sg I or Sg II with hK2 results in generation of a multitude of peptides | hK2 Hydrolysis Rate (GSKGHRRL (SEQ ID NO: 71)): 2650 FU/hr/m | hK2 Hydrolysis Rate (GGGKARRL (SEQ ID NO: 67)): 4780 FU/hr/m | hK2 Hydrolysis Rate (GGKARRS (SEQ ID NO: 111)): 1610 FU/hr/m | substrate hydrolysis by hK2 [4]: NR | hK2 Hydrolysis Rate (GSNTERRL (SEQ ID NO: 77)): 592 FU/hr/m | hK2 Hydrolysis Rate (GGKAKKL (SEQ ID NO: 120)): 77.9 FU/hr/m | hK2 Hydrolysis Rate (GPAHQDHL (SEQ ID NO: 90)): 48.1 FU/hr/m | hK2 Hydrolysis Rate (GHEQKRRL (SEQ ID NO: 66)): 5970 FU/hr/m and 3370 FU/hr/m | hK2 Hydrolysis Rate (GSYPSRRL (SEQ ID NO: 74)): 2060 FU/hr/m | hK2 Hydrolysis Rate (GGKARRL (SEQ ID NO: 105)): 2170 FU/hr/m | hK2 Hydrolysis Rate (GSYEERHL (SEQ ID NO: 84)): 42.9 FU/hr/m | hK2 Hydrolysis Rate (GGHKRRL (SEQ ID NO: 101)): 2430 FU/hr/m | hK2 Hydrolysis Rate (GHEQKGRL (SEQ ID NO: 76)): 651 FU/hr/m | hK2 Hydrolysis Rate (GGGKAHRL (SEQ ID NO: 68)): 4100 FU/hr/m | hK2 Hydrolysis Rate (GGKARKL (SEQ ID NO: 112)): 1600 FU/hr/m | hK2 Hydrolysis Rate (GSQNQVHL (SEQ ID NO: 92)): 32.5 FU/hr/m | hK2 Hydrolysis Rate (GGAKRRL (SEQ ID NO: 98)): 2770 FU/hr/m | hK2 Hydrolysis Rate (GGKSRRL (SEQ ID NO: 94)): 3440 FU/hr/m | hK2 Hydrolysis Rate (GSKGHFHL (SEQ ID NO: 81)): 171 FU/hr/m | hK2 Hydrolysis Rate [5]: 16.5 FU/hr/m | Activity (%) with 100 µM substrate, relative to H-Pro-Phe-Arg-AMC [6]: 7% | Kcat [6]: 0.04 s⁻¹ | Kcat/km [6]: 567 M⁻¹ s⁻¹ | Km [6]: 71 µM | hK2 Hydrolysis Rate (GHAQKRRL (SEQ ID NO: 93)): 3670 FU/hr/m | hK2 Hydrolysis Rate (GSYEERRL (SEQ ID NO: 78)): 325 FU/hr/m | hK2 Hydrolysis Rate (GGKARHL (SEQ ID NO: 117)): 939 FU/hr/m | Activity (%) with 100 µM substrate, relative to H-Pro-Phe-Arg-AMC [7]: 100% | Kcat [7]: 0.917 s⁻¹ | Kcat/km [7]: 22900 M⁻¹ s⁻¹ | Km [7]: 40 µM | rate of cleavage of 100 µM substrate by 1.6 pmol hK2 [7]: 1.6 pmol of the hK2 preparation cleaved 50 pmol/min of the 100 µM substrate Pro-Phe-Arg-AMC | hK2 Hydrolysis Rate (GGKKRRL (SEQ ID NO: 100)): 2580 FU/hr/m | hK2 Hydrolysis Rate (GSQNQVRL (SEQ ID NO: 82)): 194 FU/hr/m | hK2 Hydrolysis Rate [8]: 1960 FU/hr/m | substrate hydrolysis by hK2 [9]: NR | hK2 Hydrolysis Rate (GPLILSRL (SEQ ID NO: 83)): 118 FU/hr/m | hK2 Hydrolysis Rate (GGKARNL (SEQ ID NO: 118)): 828 FU/hr/m | hK2 Hydrolysis Rate (GGKHRRL (SEQ ID NO: 107)): 2080 FU/hr/m | hK2 Hydrolysis Rate (GGQKRRL (SEQ ID NO: 96)): 3270 FU/hr/m | hK2 Hydrolysis Rate (GKDVSRRL (SEQ ID NO: 72)): 2320 FU/hr/m | hK2 Hydrolysis Rate (GGKQRRL (SEQ ID NO: 106)): 2170 FU/hr/m | hK2 Hydrolysis Rate (GHEAKRRL (SEQ ID NO: 95)): 3320 FU/hr/m | hK2 Hydrolysis Rate (GKDVSGRL (SEQ ID NO: 79)): 243 FU/hr/m | progress curves of Pro-Phe-Arg-AMC hydrolysis by 8 nM hK2 with 80, 40 or 16 nM PCI [10]: The inhibitor of hK2 by PCI could be described by the slow-binding inhibition mechanism presented in Scheme 2 | hK2 Hydrolysis Rate (GSQNQRRL (SEQ ID NO: 73)): 2100 FU/hr/m | substrate hydrolysis by hK2 [11]: NR | hK2 Hydrolysis Rate (GKDVSGHL (SEQ ID NO: 85)): 67.5 FU/hr/m | substrate hydrolysis by hK2 [12]: NR | hK2 Hydrolysis Rate [13]: 494 FU/hr/m | cleavage by hK2 (HPLC of fragments) (Semenogelin II): Cleavage of either Sg I or Sg II with hK2 results in generation of a multitude of peptides | Activity (%) with 100 µM substrate, relative to H-Pro-Phe-Arg-AMC [14]: 6% | Kcat [14]: 0.0267 s⁻¹ | Kcat/km [14]: 567 M⁻¹ s⁻¹ | Km [14]: 48 µM | substrate hydrolysis by hK2 [15]: NR | hK2 Hydrolysis Rate [16]: 2330 FU/hr/m | hK2 Hydrolysis Rate [17]: 1690 FU/hr/m | substrate hydrolysis by hK2 [18]: NR | hK2 Hydrolysis Rate (GGKARQL (SEQ ID NO: 116)): 1020 FU/hr/m | hK2 Hydrolysis Rate (GSKGHFRL (SEQ ID NO: 70)): 3030 FU/hr/m | hK2 Hydrolysis Rate (GHEQKRRS (SEQ ID NO: 99)): 2640 FU/hr/m | hK2 Hydrolysis Rate (GHEQKGHL (SEQ ID NO: 89)): 1.3 FU/hr/m | hK2 Hydrolysis Rate (GPAHQDRL (SEQ ID NO: 88)): 75.3 FU/hr/m | hK2 Hydrolysis Rate (GGGKAHHL (SEQ ID NO: 86)): 70.2 FU/hr/m | hK2 Hydrolysis Rate (GGKANRL (SEQ ID NO: 115)): 1110 FU/hr/m | hK2 Hydrolysis Rate (GGKAHKL (SEQ ID NO: 121)): 73.2 FU/hr/m | hK2 Hydrolysis Rate (GSNTEKHL (SEQ ID NO: 87)): 80.5 FU/hr/m | hK2 Hydrolysis Rate [19]: 1470 FU/hr/m | hK2 Hydrolysis Rate (GGKAKRL (SEQ ID NO: 109)): 1790 FU/hr/m | hK2 Hydrolysis Rate (GSYPSSHL (SEQ ID NO: 91)): 24.7 FU/hr/m | hK2 Hydrolysis Rate (GGKAQRL (SEQ ID NO: 104)): 2230 FU/hr/m
